*1 amine or outer side, *2 acyl side, *3 side chain or, on linkers, in order; H or OH if unused. Where a SMILES comes first, the peptide text is derived from it. Primed or numbered codes have the meaning given here. The star is where a group is joined. C22 diacid = O=C(O)CCCCCCCCCCCCCCCCCCCCC(=O)*; C20 diacid = O=C(O)CCCCCCCCCCCCCCCCCCC(=O)*; C18 diacid = O=C(O)CCCCCCCCCCCCCCCCC(=O)*; γGlu = O=C(O)[C@H](CCC(=O)[*:2])N[*:1]; Inp′ = not defined here; Trx′ = not defined here
T1: human amylin receptor (AMY3) on CHO-K1/Gal5/AMY3 cells (human, UniProt P30988 25-474; O60896 24-148)
T1 sequence (looked up) 1: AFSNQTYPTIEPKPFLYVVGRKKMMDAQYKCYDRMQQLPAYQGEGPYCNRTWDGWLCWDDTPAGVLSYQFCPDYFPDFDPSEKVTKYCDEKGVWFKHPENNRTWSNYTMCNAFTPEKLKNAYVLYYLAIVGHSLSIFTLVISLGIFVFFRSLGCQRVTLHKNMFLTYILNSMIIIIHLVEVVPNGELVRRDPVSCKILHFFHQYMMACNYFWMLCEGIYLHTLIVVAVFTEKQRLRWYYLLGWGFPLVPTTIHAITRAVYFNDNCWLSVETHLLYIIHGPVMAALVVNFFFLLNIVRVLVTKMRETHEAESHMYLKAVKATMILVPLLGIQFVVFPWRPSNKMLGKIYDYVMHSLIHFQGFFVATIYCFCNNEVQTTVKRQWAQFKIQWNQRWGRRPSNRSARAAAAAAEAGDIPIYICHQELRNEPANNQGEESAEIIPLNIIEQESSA
T1 sequence (looked up) 2: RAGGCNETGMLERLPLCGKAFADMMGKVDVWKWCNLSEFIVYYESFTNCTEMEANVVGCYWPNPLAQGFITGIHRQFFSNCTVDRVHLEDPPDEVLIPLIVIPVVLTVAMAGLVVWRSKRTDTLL

B1: calcitonin derivative M6 (peptide)
peptide: {C20 diacid-γGlu}-ASQLSTAVLGRLSQELHRLQDYPRTDVGSGSP-NH2
SMILES: CC(C)C[C@H](NC(=O)[C@H](CCCNC(=N)N)NC(=O)CNC(=O)[C@H](CC(C)C)NC(=O)[C@@H](NC(=O)[C@H](C)NC(=O)[C@@H](NC(=O)[C@H](CO)NC(=O)[C@H](CC(C)C)NC(=O)[C@H](CCC(N)=O)NC(=O)[C@H](CO)NC(=O)[C@H](C)NC(=O)CC[C@H](NC(=O)CCCCCCCCCCCCCCCCCCC(=O)O)C(=O)O)[C@@H](C)O)C(C)C)C(=O)N[C@@H](CO)C(=O)N[C@@H](CCC(N)=O)C(=O)N[C@@H](CCC(=O)O)C(=O)N[C@@H](CC(C)C)C(=O)N[C@@H](Cc1c[nH]cn1)C(=O)N[C@@H](CCCNC(=N)N)C(=O)N[C@@H](CC(C)C)C(=O)N[C@@H](CCC(N)=O)C(=O)N[C@@H](CC(=O)O)C(=O)N[C@@H](Cc1ccc(O)cc1)C(=O)N1CCC[C@H]1C(=O)N[C@@H](CCCNC(=N)N)C(=O)N[C@H](C(=O)N[C@@H](CC(=O)O)C(=O)N[C@H](C(=O)NCC(=O)N[C@@H](CO)C(=O)NCC(=O)N[C@@H](CO)C(=O)N1CCC[C@H]1C(N)=O)C(C)C)[C@@H](C)O
B2: calcitonin derivative M38 (peptide)
peptide: {C22 diacid-γGlu}-ASQLSTAVLGRLSDELHRLQDYPRTDVGSGSP-NH2
SMILES: CC(C)C[C@H](NC(=O)[C@H](CCCNC(=N)N)NC(=O)CNC(=O)[C@H](CC(C)C)NC(=O)[C@@H](NC(=O)[C@H](C)NC(=O)[C@@H](NC(=O)[C@H](CO)NC(=O)[C@H](CC(C)C)NC(=O)[C@H](CCC(N)=O)NC(=O)[C@H](CO)NC(=O)[C@H](C)NC(=O)CC[C@H](NC(=O)CCCCCCCCCCCCCCCCCCCCC(=O)O)C(=O)O)[C@@H](C)O)C(C)C)C(=O)N[C@@H](CO)C(=O)N[C@@H](CC(=O)O)C(=O)N[C@@H](CCC(=O)O)C(=O)N[C@@H](CC(C)C)C(=O)N[C@@H](Cc1c[nH]cn1)C(=O)N[C@@H](CCCNC(=N)N)C(=O)N[C@@H](CC(C)C)C(=O)N[C@@H](CCC(N)=O)C(=O)N[C@@H](CC(=O)O)C(=O)N[C@@H](Cc1ccc(O)cc1)C(=O)N1CCC[C@H]1C(=O)N[C@@H](CCCNC(=N)N)C(=O)N[C@H](C(=O)N[C@@H](CC(=O)O)C(=O)N[C@H](C(=O)NCC(=O)N[C@@H](CO)C(=O)NCC(=O)N[C@@H](CO)C(=O)N1CCC[C@H]1C(N)=O)C(C)C)[C@@H](C)O
B3: calcitonin derivative M55 (peptide)
peptide: {C20 diacid-Trx′}-ASQLSTAVLGRLSEELHRLQDYPRTDVGSGSP-NH2
modifications: reading uncertain
B4: calcitonin derivative M8 (peptide)
peptide: {C20 diacid-γGlu}-ASQLSTAVLGRLSDELHRLQDYPRTDVGSGSP-NH2
SMILES: CC(C)C[C@H](NC(=O)[C@H](CCCNC(=N)N)NC(=O)CNC(=O)[C@H](CC(C)C)NC(=O)[C@@H](NC(=O)[C@H](C)NC(=O)[C@@H](NC(=O)[C@H](CO)NC(=O)[C@H](CC(C)C)NC(=O)[C@H](CCC(N)=O)NC(=O)[C@H](CO)NC(=O)[C@H](C)NC(=O)CC[C@H](NC(=O)CCCCCCCCCCCCCCCCCCC(=O)O)C(=O)O)[C@@H](C)O)C(C)C)C(=O)N[C@@H](CO)C(=O)N[C@@H](CC(=O)O)C(=O)N[C@@H](CCC(=O)O)C(=O)N[C@@H](CC(C)C)C(=O)N[C@@H](Cc1c[nH]cn1)C(=O)N[C@@H](CCCNC(=N)N)C(=O)N[C@@H](CC(C)C)C(=O)N[C@@H](CCC(N)=O)C(=O)N[C@@H](CC(=O)O)C(=O)N[C@@H](Cc1ccc(O)cc1)C(=O)N1CCC[C@H]1C(=O)N[C@@H](CCCNC(=N)N)C(=O)N[C@H](C(=O)N[C@@H](CC(=O)O)C(=O)N[C@H](C(=O)NCC(=O)N[C@@H](CO)C(=O)NCC(=O)N[C@@H](CO)C(=O)N1CCC[C@H]1C(N)=O)C(C)C)[C@@H](C)O
B5: calcitonin derivative M39 (peptide)
peptide: {C18 diacid-γGlu}-ASQLSTAVLGRLSDELHRLQDYPRTDVGSGSP-NH2
SMILES: CC(C)C[C@H](NC(=O)[C@H](CCCNC(=N)N)NC(=O)CNC(=O)[C@H](CC(C)C)NC(=O)[C@@H](NC(=O)[C@H](C)NC(=O)[C@@H](NC(=O)[C@H](CO)NC(=O)[C@H](CC(C)C)NC(=O)[C@H](CCC(N)=O)NC(=O)[C@H](CO)NC(=O)[C@H](C)NC(=O)CC[C@H](NC(=O)CCCCCCCCCCCCCCCCC(=O)O)C(=O)O)[C@@H](C)O)C(C)C)C(=O)N[C@@H](CO)C(=O)N[C@@H](CC(=O)O)C(=O)N[C@@H](CCC(=O)O)C(=O)N[C@@H](CC(C)C)C(=O)N[C@@H](Cc1c[nH]cn1)C(=O)N[C@@H](CCCNC(=N)N)C(=O)N[C@@H](CC(C)C)C(=O)N[C@@H](CCC(N)=O)C(=O)N[C@@H](CC(=O)O)C(=O)N[C@@H](Cc1ccc(O)cc1)C(=O)N1CCC[C@H]1C(=O)N[C@@H](CCCNC(=N)N)C(=O)N[C@H](C(=O)N[C@@H](CC(=O)O)C(=O)N[C@H](C(=O)NCC(=O)N[C@@H](CO)C(=O)NCC(=O)N[C@@H](CO)C(=O)N1CCC[C@H]1C(N)=O)C(C)C)[C@@H](C)O
B6: calcitonin derivative M21 (peptide)
peptide: {C20 diacid-γGlu}-ASQLSTAVLGRLSQELHRLQDYPRTDVGSESP-NH2
SMILES: CC(C)C[C@H](NC(=O)[C@H](CCCNC(=N)N)NC(=O)CNC(=O)[C@H](CC(C)C)NC(=O)[C@@H](NC(=O)[C@H](C)NC(=O)[C@@H](NC(=O)[C@H](CO)NC(=O)[C@H](CC(C)C)NC(=O)[C@H](CCC(N)=O)NC(=O)[C@H](CO)NC(=O)[C@H](C)NC(=O)CC[C@H](NC(=O)CCCCCCCCCCCCCCCCCCC(=O)O)C(=O)O)[C@@H](C)O)C(C)C)C(=O)N[C@@H](CO)C(=O)N[C@@H](CCC(N)=O)C(=O)N[C@@H](CCC(=O)O)C(=O)N[C@@H](CC(C)C)C(=O)N[C@@H](Cc1c[nH]cn1)C(=O)N[C@@H](CCCNC(=N)N)C(=O)N[C@@H](CC(C)C)C(=O)N[C@@H](CCC(N)=O)C(=O)N[C@@H](CC(=O)O)C(=O)N[C@@H](Cc1ccc(O)cc1)C(=O)N1CCC[C@H]1C(=O)N[C@@H](CCCNC(=N)N)C(=O)N[C@H](C(=O)N[C@@H](CC(=O)O)C(=O)N[C@H](C(=O)NCC(=O)N[C@@H](CO)C(=O)N[C@@H](CCC(=O)O)C(=O)N[C@@H](CO)C(=O)N1CCC[C@H]1C(N)=O)C(C)C)[C@@H](C)O
B7: calcitonin derivative M56 (peptide)
peptide: {C20 diacid-Inp′}-ASQLSTAVLGRLSEELHRLQDYPRTDVGSGSP-NH2

What was measured:
[1] = Heat accelerated stability assay under a neutral condition; type: physicochemical; conditions: pH about 7.4, 40°C
Procedure: The lyophilized powder (1 mg/mL) of calcitonin analogues or derivatives prepared in accordance with the method of Example 1 were mixed with sodium dihydrogen phosphate (1.42 mg/mL) and dissolved in ultrapure water in the indicated mass-volume ratios. After adjusting pH to about 7.4 with hydrochloric acid/sodium hydroxide, the solution was filtered into a sterilized vial in a clean bench using a 0.22 µm sterile filter. The vial was then capped and placed into the stability test chamber at 40°C. Detections were made on Days 7 (7d) and 26 (26d), and during the assay, changes in the characteristics and properties of the polypeptides were observed and recorded. The sample was then centrifuged for 3 min at 10000 rpm at 4°C, and the supernatant was transferred to a liquid phase sample vial for detecting the concentration and purity of the polypeptides using liquid phase chromatography described as below, wherein the concentration of the polypeptide = peak area/injection volume/extinction coefficient/60×flow rate, and the purity of the polypeptide = target peak area/total peak area× 100%.
Conditions of the reversed phase chromatography Flow rate: 1.0 ml/min; Autosampler temperature: 15°C; Column temperature: 25°C; Detection wavelengths: 280 nm and 214 nm; Mobile phase A: 100% H2O+0.05% TFA; Mobile phase B: 100% ACN; and Gradient of elution listed in Table 4: Table 4. Listing of the gradient of elution in the liquid phase chromatography
Results were shown below in Tables 5, 6, and 7. A difference of more than 5% in content as compared with the initial value was typically assumed (for example, as prescribed by the Chinese Pharmacopeia (2020 Edition)) to be a significant change. Within a reasonable margin of error, a decrease of less than 1% from the initial value to the detected content is denoted as "no change" below. Table 5. Changes in characteristics or properties in the heat accelerated stability assay

[2] = target: T1, human amylin receptor (AMY3) on …; assay: cell-based or functional assay

Molecule | EC50/nM, CRE-luciferase in amylin receptor/CRE-luc CHO cells [2] [nM] | also measured
CC(C)C[C@H](NC(=O)[C@H](CCCNC(=N)N)NC(=O)CNC(=O)[C@H](CC(C)C)NC(=O)[C@@H](NC(=O)[C@H](C)NC(=O)[C@@H](NC(=O)[C@H](CO)NC(=O)[C@H](CC(C)C)NC(=O)[C@H](CCC(N)=O)NC(=O)[C@H](CO)NC(=O)[C@H](C)NC(=O)[C@H](CCC(=O)O)NC(=O)CCCCCCCCCCCCCCCCCCC(=O)O)[C@@H](C)O)C(C)C)C(=O)N[C@@H](CO)C(=O)N[C@@H](CC(=O)O)C(=O)N[C@@H](CCC(=O)O)C(=O)N[C@@H](CC(C)C)C(=O)N[C@@H](Cc1c[nH]cn1)C(=O)N[C@@H](CCCNC(=N)N)C(=O)N[C@@H](CC(C)C)C(=O)N[C@@H](CCC(N)=O)C(=O)N[C@@H](CC(=O)O)C(=O)N[C@@H](Cc1ccc(O)cc1)C(=O)N1CCC[C@H]1C(=O)N[C@@H](CCCNC(=N)N)C(=O)N[C@H](C(=O)N[C@@H](CC(=O)O)C(=O)N[C@H](C(=O)NCC(=O)N[C@@H](CO)C(=O)NCC(=O)N[C@@H](CO)C(=O)N1CCC[C@H]1C(N)=O)C(C)C)[C@@H](C)O [M41] ({C20 diacid}-EASQLSTAVLGRLSDELHRLQDYPRTDVGSGSP-NH2) |  | Changes in characteristics or properties, 0d ([1]; 1 mg/mL, phosphate, 0d): Clear; Changes in characteristics or properties, 7d ([1]; 1 mg/mL, phosphate, 7d): Clear; Concentration change (7d-0d)/% ([1]; Day 7 vs Day 0, reversed phase chromatography): -3.134%; Purity Change% (7d-0d) ([1]; purity from reversed phase chromatography-214 nm, Day 7 vs Day 0): -1.66%; Purity Change% (26d-0d) ([1]; purity from reversed phase chromatography-214 nm, Day 26 vs Day 0): -5.98%
B1 | 0.017 | 
B2 | 0.022 | 
B3 | 0.017 | 
B4 | 0.017 | 
B5 | 0.016 | 
B6 | 0.017 | 
B7 | 0.017 | 
